From patent US20250003951A1 (OXFORD UNIVERSITY INNOVATION, published 2025)
Blank lines part the entries; values can stand above or below the binder they belong to.

Assays:
Test in all cases: cell-based or functional assay
OX885-559 = biological target: T1, OX885-559 (human)
T1 peptide: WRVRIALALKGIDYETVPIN

OX885-560 = biological target: T2, OX885-560 (human)
T2 peptide: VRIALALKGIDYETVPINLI

OX289-009 = biological target: T3, OX289-009 (human)
T3 peptide: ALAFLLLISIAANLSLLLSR

OX289-284 = biological target: T4, OX289-284 (human)
T4 peptide: GETGMFSLSTIRGHQYATY

OX628-309 = biological target: T5, OX628-309 (human)
T5 peptide: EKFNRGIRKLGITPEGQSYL

OX628-308 = biological target: T6, OX628-308 (human)
T6 peptide: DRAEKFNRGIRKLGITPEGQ

OX289-067 = biological target: T7, OX289-067 (human)
T7 peptide: VATFPVYTMVAIPIVCKD

OX289-040 = biological target: T8, OX289-040 (human)
T8 peptide: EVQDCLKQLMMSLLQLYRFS

Clone size (percent repertoire), IFNγ+ sorted T cells after peptide stimulation (OX885-559): 96.5 % of repertoire
Clone size (percent repertoire), IFNγ+ sorted T cells after peptide stimulation (OX885-560): 96.5 % of repertoire
B1: OX885 Peptides 559/560 clone 1 TCR (TCR, V domains shown)
V domain 1: GIQVEQSPPDLILQEGANSTLRCNFSDSVNNLQWFHQNPWGQLINLFYIPSGTKQNGRLSATTVATERYSLLYISSSQTTDSGVYFCAARRVDNNNDMRFGAGTRLTVKP
V domain 2: DARVTQTPRHKVTEMGQEVTMRCQPILGHNTVFWYRQTMMQGLELLAYFRNRAPLDDSGMPKDRFSAEMPDATLATLKIQPSEPRDSAVYFCASGLAQPQHFGDGTRLSILE

Clone size (percent repertoire), IFNγ+ sorted T cells after peptide stimulation (OX289-009): 91.1 % of repertoire
B2: OX289 Peptide 9 clone 1 TCR (TCR, V domains shown)
V domain 1: RKEVEQDPGPFNVPEGATVAFNCTYSNSASQSFFWYRQDCRKEPKLLMSVYSSGNEDGRFTAQLNRASQYISLLIRDSKLSDSATYLCVVDFYTSGTYKYIFGTGTRLKVLA
V domain 2: GAVVSQHPSRVICKSGTSVKIECRSLDFQATTMFWYRQFPKQSLMLMATSNEGSKATYEQGVEKDKFLINHASLTLSTLTVTSAHPEDSSFYICSARDREAAGYGYTFGSGTRLTVVE

Clone size (percent repertoire), IFNγ+ sorted T cells after peptide stimulation (OX289-284): 96 % of repertoire
B3: OX289 Peptide 284 clone 1 TCR (TCR)
TCR alpha: RKEVEQDPGPFNVPEGATVAFNCTYSNSASQSFFWYRQDCRKEPKLLMSVYSSGNEDGRFTAQLNRASQYISLLIRDSKLSDSATYLCVVNKATSGTYKYIFGTGTRLKVLANIQNPDPAVYQLRD
TCR beta 1: AVVSQHPSWVICKSGTSVKIECRSLDFQATTMFWYRQFPKQSLMLMATSNEGSKATYEQGVEKDKFLINHASLTLSTLTVTSAHPEDSSFYICSARDREAAGYGYTFGSGTRLTVVEDLNKVFPPEVAVFEPS
TCR beta 2: AVVSQHPSWVICKSGTSVKIECRSLDFQATTMFWYRQFPKQSLMLMATSNEGSKATYEQGVEKDKFLINHASLTLSTLTVTSAHPEDSSFYICSARLAHSGTNTGELFFGEGSRLTVLEDLKNVFPPEVAVFEPS

Clone size (percent repertoire), IFNγ+ sorted T cells after peptide stimulation (OX628-309): 16.2 % of repertoire
Clone size (percent repertoire), IFNγ+ sorted T cells after peptide stimulation (OX628-308): 16.2 % of repertoire
B4: OX885 Peptides OX628-308/309 clone 2 TCR (TCR, V domains shown)
V domain 1: AQSVTQLDSQVPVFEEAPVELRCNYSSSVSVYLFWYVQYPNQGLQLLLKYLSGSTLVKGINGFEAEFNKSQTSFHLRKPSVHISDTAEYFCAVSGVLTGGGNKLTFGTGTQLKVEL
V domain 2: DAGITQSPRYKITETGRQVTLMCHQTWSHSYMFWYRQDLGHGLRLIYYSAAADITDKGEVPDGYVVSRSKTENFPLTLESATRSQTSVYFCASSEGTVSNQPQHFGDGTRLSILE

Clone size (percent repertoire), IFNγ+ sorted T cells after peptide stimulation (OX289-067): 81.1 % of repertoire
B5: OX289 Peptide 67 clone 1 TCR (TCR)
TCR alpha 1: QLLEQSPQFLSIQEGENLTVYCNSSSVFSSLQWYRQEPGEGPVLLVTVVTGGEVKKLKRLTFQFGDARKDSSLHITAAQPGDTGLYLCAGLDDKIIFGKGTRLHILPNIQNPDPAVYQLRD
TCR alpha 2: GIQVEQSPPDLILQEGANSTLRCNFSDSVNNLQWFHQNPWGQLINLFYIPSGTKQNGRLSATTVATERYSLLYISSSQTTDSGVYFCAVAGSNYQLIWGAGTKLIIKPDIQNPDPAVYQLRD
TCR beta: EAGVAQSPRYKIIEKRQSVAFWCNPISGHATLYWYQQILGQGPKLLIQFQNNGVVDDSQLPKDRFSAERLKGVDSTLKIQPAKLEDSAVYLCASSDPISGRGDEQFFGPGTRLTVLEDLKNVFPPEVAVFEPS

Clone size (percent repertoire), IFNγ+ sorted T cells after peptide stimulation (OX289-040): 85.2 % of repertoire
B6: OX289 Peptide 40 clone 1 TCR (TCR, V domains shown)
V domain 1: NSVTQMEGPVTLSEEAFLTINCTYTATGYPSLFWYVQYPGEGLQLLLKATKADDKGSNKGFEATYRKETTSFHLEKGSVQVSDSAVYFCALIPTGGGNKLTFGTGTQLKVEL
V domain 2: AVVSQHPSWVICKSGTSVKIECRSLDFQATTMFWYRQFPKQSLMLMATSNEGSKATYEQGVEKDKFLINHASLTLSTLTVTSAHPEDSSFYICSARLAHSGTNTGELFFGEGSRLTVLE
